Results: patent publication US11549124B2 (priority 2017, dated 2023)

B1: HvNEP-1 (protein)
chain: MAMAIMNTLQCILFLMALIMTHQIPRATADADTPKVAMASSGAGSSFRLAAHHDHALSRSDDGFLHVQSRLDNLLPSEANVTTLRPPVASPLDMAFSVVVGLGSGKGRHDYNLKLDASGSLTWVQCKPCNPKQPQRGPLFDPKASSTFQQVAGTSQICHPPYPMEPAGQQCAFHLSGMGGMSVHGYVAMENLTMGPEAMKEFVFGCSHSTGHFNSHGTFAGVAAMGKMPTSLVMQVAARGQTRFSYCLFSGGASRHGFLRFGADVPSRSGLRTTKILPALDAHESQYYVSLVGISLDAKRLTGVRPEMFARQRGGEGGCVVDPGTPLTVLVREAYRVVEDAVWSDLRRNKAERVQREGYGLCVRKTAEIKRHLQSLSLHFAEETARLVVKPEQLFVAVESRLHGAALCLAMRPGERTVIGALQQVDTRFVYDLKDAKLSFASEPCSQDTAGVD
modifications: Hordeum vulgare

What was measured:
[1] = system: wheat TaPAPhy phytase (EC 3.1.3.26); assay: Residual phytase activity after treatment with protease at different phytase:protease ratios; conditions: phytase: protease ratio of 1:20
Excerpt: Values are mean of 3 independent technical replicates, and error bars represent means+±sd of replicates.

F. graminearum JCM9873 = format: cell-based
[2] = system: TRI4, TRI5, TRI6 genes of F. graminearum JCM9873; format: cell-based
[3] = biological target: Aspergillus ficuum phytase (Aspergillus niger, UniProt P34752)
Aspergillus ficuum phytase, sequence (P34752 24-467): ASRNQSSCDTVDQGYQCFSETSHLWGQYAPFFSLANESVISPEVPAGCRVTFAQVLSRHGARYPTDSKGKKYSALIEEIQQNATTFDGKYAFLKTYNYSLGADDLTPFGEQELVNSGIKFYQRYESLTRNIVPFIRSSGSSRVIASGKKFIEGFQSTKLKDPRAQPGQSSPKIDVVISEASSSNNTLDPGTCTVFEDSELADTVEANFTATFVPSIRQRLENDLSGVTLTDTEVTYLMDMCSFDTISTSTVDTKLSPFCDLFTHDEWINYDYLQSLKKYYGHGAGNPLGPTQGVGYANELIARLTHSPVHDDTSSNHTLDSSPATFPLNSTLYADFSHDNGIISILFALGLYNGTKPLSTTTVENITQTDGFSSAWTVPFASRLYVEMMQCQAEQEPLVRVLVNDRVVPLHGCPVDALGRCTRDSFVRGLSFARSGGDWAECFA

[4] = system: phytases in crude extract from F. graminearum 7775; format: biochemical
[5] = system: phytases in crude extract from F. culmorum 8984; format: biochemical

Molecule	phytase activity after exposure to protease [1]	15-ADON production by F. graminearum (F. graminearum JCM9873)	growth (biomass accumulation) of fungal culture (F. graminearum JCM9873)	toxin production of fungal culture (F. graminearum JCM9873)	expression of TRI4 gene [2]	expression of TRI5 gene [2]	expression of TRI6 gene [2]	pH of peak activity for inhibiting A. ficuum phytase ([3]; 5 μg HvNEP-1, 2.5 U/ml phytase, 2 mM sodium phytate, 1 h, 37° C., pH 2.0 to 8.0)	temperature of peak activity for inhibiting A. ficuum phytase ([3]; 100 mM acetate buffer pH 5.0, 1 h) [°C]	inhibition of phytases in crude extract [4]	inhibition of phytases in crude extract [5]
pepsin	unaffected	–	–	–	–	–	–	–	–	–	–
B1	–	not detectable	strongly inhibited	strongly inhibited	suppressed	suppressed	suppressed	5.0	40	strongly inhibited	strongly inhibited
